Source: paper PMC2748320

Target: C-terminal mycHis-tagged Rp1L1 (1-361), expressed in COS7 cells (mouse) (UniProt Q8CGM2)
Assay: co-IP

Chain of UniProt Q8CGM2 (Q8CGM2 1-361): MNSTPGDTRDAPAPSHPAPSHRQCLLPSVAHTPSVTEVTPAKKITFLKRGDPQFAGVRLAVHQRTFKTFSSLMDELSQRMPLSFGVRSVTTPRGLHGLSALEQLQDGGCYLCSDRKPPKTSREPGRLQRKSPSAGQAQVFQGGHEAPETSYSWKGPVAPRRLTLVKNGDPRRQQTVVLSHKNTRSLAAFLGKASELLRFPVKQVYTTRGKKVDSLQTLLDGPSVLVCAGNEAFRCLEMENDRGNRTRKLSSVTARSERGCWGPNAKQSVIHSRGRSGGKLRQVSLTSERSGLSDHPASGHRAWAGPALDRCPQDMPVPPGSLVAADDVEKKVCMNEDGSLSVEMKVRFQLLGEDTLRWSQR

percent of FLAG-Rp1 co-immunoprecipitated: 12%
Substance: N-terminal FLAG-tagged full-length Rp1, P56716 1-2095
